In patent publication US9951356B2, “Processes to prepare elongated 2-ketoacids and C6-C10 compounds therefrom via genetic modifications to microbial metabolic pathways” (Dow Global Technologies LLC, priority 2013, dated 2018):

Tests used:
Type in all cases: biochemical
[1] = HTP LeuB kinetic assay, oxidative decarboxylation of 3-HM; conditions: for increase in efficiency of capturing 3-HM compared with the wild type enzyme: more efficient than wild type LeuB; for Km / kcat: substrate 3-HM, mean ± S.D.
Experimental: (§1) The evaluation of the LeuB variants is performed in two steps using the high-throughput enzyme assay described below. Initially, all of the variants are screened for activity against a single high concentration of 3-IPM, 3-BM and 3-HM. Following the initial evaluation, detailed kinetic analysis is performed on a select number of variants to determine the maximal rate (kcat), Michaelis-Menten constant (KM), and the catalytic efficiency of the variant enzymes (kcat/KM).
(§2) A suitable spectrophotometric LeuB enzyme assay is adapted into a high-throughput format in 96-well plates for the kinetic evaluation of LeuB and its variants (shown in Table 1) against 3-isopropylmalate (3-IPM), 3-butylmalate (3-BM), and 3-hexylmalate (3-HM). See, for example, Hsu, Y.; Kohlhaw, G. B. “Leucine biosynthesis in Saccharomyces cerevisiae. Purification and characterization of beta-isopropylmalate dehydrogenase,” J. Biol. Chem., 1980, 255:7255-7260. Steady state kinetic parameters (kcat, KM and kcat/KM) for the oxidative decarboxylation of the three substrates by the variants are determined in these experiments.
(§3) The HTP kinetic assay involves incubating eight varied concentrations, of 3-IPM (from 0 to 1.2 mM) or 3-BM (from 0 to 2 mM) or 3-HM (from 0 to 2 mM), with 2 mM NAD^+ in LeuB assay buffer (50 mM HEPES, pH 8.0, containing 30 mM KCl and 5 mM MgCl2) at 25° C. The reaction is started by adding from 0.008 μg to 0.5 μg of LeuB variant which has been pre-diluted in assay buffer containing 1 mM DTT and 1 mg/mL BSA. The plate containing the 200 μl of reaction mixture is centrifuged at 2500×g for 15 sec and the absorbance change is followed spectrophotometrically at 340 nm on a BioTek™ plate reader maintained at 25° C. Initial velocity of the enzyme reaction is calculated from the rate of NADH production at 340 nm and using the extinction coefficient of NADH (6.22 mM^−1cm^−1). The kinetic parameters (kcat, KM and kcat/KM) of oxidative decarboxylation of 3-alkylmalate are determined by fitting the data to the Michaelis-Menten equation using nonlinear regression performed using the GraphPad Prism™ software. Table 3 lists the kinetic parameters of the wild type and engineered variants against the three substrates. The amount of enzyme in the reaction mixture is determined using the 660 nm total protein assay kit acquired from Pierce Biotechnology Inc.™, using BSA as the standard.

[2] = HTP screening assay of LeuB variants, 3-IPM; conditions: 750 μM 3-IPM, 2 mM NAD+, pH 8.0, 25° C.; mean of duplicates
Experimental: as §1, §2
(§4) The HTP screening assay involves incubating 750 micromoles (μM) of 3-IPM, 1 mM 3-BM or 1 mM 3-HM, with 2 mM nicotinamide adenine dinucleotide (NAD^+) in LeuB assay buffer (50 mM 4-(2-hydroxyethyl) piperazine-1-ethanesulfonic acid (HEPES), pH 8.0, containing 30 mM potassium chloride (KCl) and 5 mM magnesium chloride (MgCl2)) at 25° C. The reaction is started by the addition at 25° C. of working enzyme stock containing from 0.3 microgram (μg) to 1.1 μg of LeuB variant diluted in assay buffer containing 1 mM DTT and 1 milligram per milliliter (mg/mL) bovine serum albumin (BSA). The plate containing the 200 μL of reaction mixture is centrifuged at 2500×g for 15 seconds (sec) and the absorbance change of the reaction mixture is followed spectrophotometrically at 340 nm on a BioTek™ plate reader, pre-equilibrated at 25° C. Initial velocity of the enzyme reaction is calculated from the rate of NADH production at 340 nm and using the extinction coefficient of NADH (6.22 per millimolar per centimeter (mM^−1cm^−1)). The activity of all the variants is normalized with the amount of enzyme present in the reaction mixture and expressed as nanomoles per minute per microgram (nmol·min^−1·μg^−1) (Table 2). Protein concentrations for normalizing the activities are determined using the 660 nm total protein assay kit acquired from Pierce Biotechnology Inc.™, available from Thermo Fisher Scientific, Inc., and using BSA as the standard.

[3] = HTP screening assay of LeuB variants, 3-BM; conditions: 1 mM 3-BM, 2 mM NAD+, pH 8.0, 25° C.; mean of duplicates
Experimental: as §1, §2, §4

[4] = HTP screening assay of LeuB variants, 3-HM; conditions: for Specific activity, 3-HM: 1 mM 3-HM, 2 mM NAD+, pH 8.0, 25° C., mean of duplicates; for activity against 3-HM compared with the wild type enzyme: screening at single high concentration
Experimental: as §1, §2, §4

[5] = HTP LeuB kinetic assay, oxidative decarboxylation of 3-BM; conditions: substrate 3-BM; mean ± S.D.
Experimental: as §1, §2, §3

B1: L96A/V198A: E. coli LeuB variant with Leu-96 and Val-198 both replaced with alanine (protein, UniProt P30125 2-363, looked up, variant L96A V198A)
3-isopropylmalate …: SKNYHIAVLPGDGIGPEVMTQALKVLDAVRNRFAMRITTSHYDVGGAAIDNHGQPLPPATVEGCEQADAVLFGSVGGPKWEHLPPDQQPERGALAPLRKHFKLFSNLRPAKLYQGLEAFCPLRADIAANGFDILCVRELTGGIYFGQPKGREGSGQYEKAFDTEVYHRFEIERIARIAFESARKRRHKVTSIDKANALQSSILWREIVNEIATEYPDVELAHMYIDNATMQLIKDPSQFDVLLCSNLFGDILSDECAMITGSMGMLPSASLNEQGFGLYEPAGGSAPDIAGKNIANPIAQILSLALLLRYSLDADDAACAIERAINRALEEGIRTGDLARGAAAVSTDEMGDIIARYVAEGV
- increase in efficiency of capturing 3-HM compared with the wild type enzyme [1]: 12 fold
- Km [1]: 80 ± 10 µM
- kcat [1]: 2.65 ± 0.067 s⁻¹
- Specific activity, 3-IPM [2]: 0.65 nmol/min/µg
- Specific activity, 3-BM [3]: 1.26 nmol/min/µg
- Specific activity, 3-HM [4]: 3.3 nmol/min/µg
- activity against 3-HM compared with the wild type enzyme [4]: higher activity than the wild type enzyme

B2: L96V: E. coli LeuB variant with Leu-96 replaced with valine (protein, UniProt P30125 2-363, looked up, variant L96V)
3-isopropylmalate …: SKNYHIAVLPGDGIGPEVMTQALKVLDAVRNRFAMRITTSHYDVGGAAIDNHGQPLPPATVEGCEQADAVLFGSVGGPKWEHLPPDQQPERGALVPLRKHFKLFSNLRPAKLYQGLEAFCPLRADIAANGFDILCVRELTGGIYFGQPKGREGSGQYEKAFDTEVYHRFEIERIARIAFESARKRRHKVTSIDKANVLQSSILWREIVNEIATEYPDVELAHMYIDNATMQLIKDPSQFDVLLCSNLFGDILSDECAMITGSMGMLPSASLNEQGFGLYEPAGGSAPDIAGKNIANPIAQILSLALLLRYSLDADDAACAIERAINRALEEGIRTGDLARGAAAVSTDEMGDIIARYVAEGV
- Specific activity, 3-IPM [2]: 1.53 nmol/min/µg

B3: L96G/V198A: E. coli LeuB variant with Leu-96 replaced with glycine and Val-198 with alanine (protein, UniProt P30125 2-363, looked up, variant L96G V198A)
3-isopropylmalate …: SKNYHIAVLPGDGIGPEVMTQALKVLDAVRNRFAMRITTSHYDVGGAAIDNHGQPLPPATVEGCEQADAVLFGSVGGPKWEHLPPDQQPERGALGPLRKHFKLFSNLRPAKLYQGLEAFCPLRADIAANGFDILCVRELTGGIYFGQPKGREGSGQYEKAFDTEVYHRFEIERIARIAFESARKRRHKVTSIDKANALQSSILWREIVNEIATEYPDVELAHMYIDNATMQLIKDPSQFDVLLCSNLFGDILSDECAMITGSMGMLPSASLNEQGFGLYEPAGGSAPDIAGKNIANPIAQILSLALLLRYSLDADDAACAIERAINRALEEGIRTGDLARGAAAVSTDEMGDIIARYVAEGV
- increase in efficiency of capturing 3-HM compared with the wild type enzyme [1]: 102 fold
- Km [1]: 50 ± 0.5 µM
- kcat [1]: 14.6 ± 0.383 s⁻¹
- Specific activity, 3-BM [3]: 1.49 nmol/min/µg
- Km [5]: 3300 ± 400 µM
- kcat [5]: 4.47 ± 0.35 s⁻¹
- Specific activity, 3-HM [4]: 20.4 nmol/min/µg
- activity against 3-HM compared with the wild type enzyme [4]: higher activity than the wild type enzyme

B4: V198G: E. coli LeuB variant with Val-198 replaced with glycine (protein, UniProt P30125 2-363, looked up, variant V198G)
3-isopropylmalate …: SKNYHIAVLPGDGIGPEVMTQALKVLDAVRNRFAMRITTSHYDVGGAAIDNHGQPLPPATVEGCEQADAVLFGSVGGPKWEHLPPDQQPERGALLPLRKHFKLFSNLRPAKLYQGLEAFCPLRADIAANGFDILCVRELTGGIYFGQPKGREGSGQYEKAFDTEVYHRFEIERIARIAFESARKRRHKVTSIDKANGLQSSILWREIVNEIATEYPDVELAHMYIDNATMQLIKDPSQFDVLLCSNLFGDILSDECAMITGSMGMLPSASLNEQGFGLYEPAGGSAPDIAGKNIANPIAQILSLALLLRYSLDADDAACAIERAINRALEEGIRTGDLARGAAAVSTDEMGDIIARYVAEGV
- Specific activity, 3-IPM [2]: 4.66 nmol/min/µg
- Specific activity, 3-BM [3]: 1.83 nmol/min/µg
- Specific activity, 3-HM [4]: 0.5 nmol/min/µg

B5: L96G/V198G: E. coli LeuB variant with Leu-96 and Val-198 both replaced with glycine (protein, UniProt P30125 2-363, looked up, variant L96G V198G)
3-isopropylmalate …: SKNYHIAVLPGDGIGPEVMTQALKVLDAVRNRFAMRITTSHYDVGGAAIDNHGQPLPPATVEGCEQADAVLFGSVGGPKWEHLPPDQQPERGALGPLRKHFKLFSNLRPAKLYQGLEAFCPLRADIAANGFDILCVRELTGGIYFGQPKGREGSGQYEKAFDTEVYHRFEIERIARIAFESARKRRHKVTSIDKANGLQSSILWREIVNEIATEYPDVELAHMYIDNATMQLIKDPSQFDVLLCSNLFGDILSDECAMITGSMGMLPSASLNEQGFGLYEPAGGSAPDIAGKNIANPIAQILSLALLLRYSLDADDAACAIERAINRALEEGIRTGDLARGAAAVSTDEMGDIIARYVAEGV
- Specific activity, 3-IPM [2]: 0.02 nmol/min/µg
- Specific activity, 3-BM [3]: 0.08 nmol/min/µg
- Specific activity, 3-HM [4]: 3.6 nmol/min/µg
- activity against 3-HM compared with the wild type enzyme [4]: higher activity than the wild type enzyme

B6: L96V/V198G: E. coli LeuB variant with Leu-96 replaced with valine and Val-198 with glycine (protein, UniProt P30125 2-363, looked up, variant L96V V198G)
3-isopropylmalate …: SKNYHIAVLPGDGIGPEVMTQALKVLDAVRNRFAMRITTSHYDVGGAAIDNHGQPLPPATVEGCEQADAVLFGSVGGPKWEHLPPDQQPERGALVPLRKHFKLFSNLRPAKLYQGLEAFCPLRADIAANGFDILCVRELTGGIYFGQPKGREGSGQYEKAFDTEVYHRFEIERIARIAFESARKRRHKVTSIDKANGLQSSILWREIVNEIATEYPDVELAHMYIDNATMQLIKDPSQFDVLLCSNLFGDILSDECAMITGSMGMLPSASLNEQGFGLYEPAGGSAPDIAGKNIANPIAQILSLALLLRYSLDADDAACAIERAINRALEEGIRTGDLARGAAAVSTDEMGDIIARYVAEGV
- Specific activity, 3-IPM [2]: 0.05 nmol/min/µg
- Specific activity, 3-BM [3]: 0.04 nmol/min/µg
